B1: 2K2A (parent)
chain: ELREAFRLYDKEGNGYISTDVMREILAELDETLSSEDLDAMIDEIDADGSGTVDFEEFMGVMT

In this series the parent is B1. Description: folding stability dG (cDNA display proteolysis); higher = more stable. Particulars: PBS, room temperature.
In the case of ELREAFRLYDKEGNGYISTDVMREILAELDETLSSEDLDAMIDEIDADGSETVDFEEFMGVMT [G51E], the “folding stability dG” value was 0.622 kcal/mol.

Take ELREAFRLYDKEGNGYISTDVMREILAELDETLSSEDLDAMIDEIDADGSATVDFEEFMGVMT [G51A]: the “folding stability dG” value was 0.849 kcal/mol.

Take ELREAFRLYDKEGNGYISTDVMREILAELDETLSSEDLDAMIDEIDADGSVTVDFEEFMGVMT [G51V]: the “folding stability dG” value was determined as 0.029 kcal/mol.

Take ELREAFRLYDKEGNGYISTDVMREILAELDETLSSEDLDAMIDEIDADGSLTVDFEEFMGVMT [G51L]: the “folding stability dG” value is 0.92 kcal/mol.

With ELREAFRLYDKEGNGYISTDVMREILAELDETLSSEDLDAMIDEIDADGSTTVDFEEFMGVMT [G51T], the “folding stability dG” value was determined as 0.424 kcal/mol.

Take ELREAFRLYDKEGNGYISTDVMREILAELDETLSSEDLDAMIDEIDADGSHTVDFEEFMGVMT [G51H]: the “folding stability dG” value was 1.39 kcal/mol.

ELREAFRLYDKEGNGYISTDVMREILAELDETLSSEDLDAMIDEIDADGSPTVDFEEFMGVMT [G51P]: the “folding stability dG” value was -0.745 kcal/mol.

As for ELREAFRLYDKEGNGYISTDVMREILAELDETLSSEDLDAMIDEIDADGSMTVDFEEFMGVMT [G51M], the “folding stability dG” value stood at 1.15 kcal/mol.

Turning to ELREAFRLYDKEGNGYISTDVMREILAELDETLSSEDLDAMIDEIDADGSGTYDFEEFMGVMT [V53Y], the “folding stability dG” value was found to be 0.679 kcal/mol.

For the variant ELREAFRLYDKEGNGYISTDVMREILAELDETLSSEDLDAMIDEIDADGSGTADFEEFMGVMT [V53A], the “folding stability dG” value is 0.162 kcal/mol.

As to ELREAFRLYDKEGNGYISTDVMREILAELDETLSSEDLDAMIDEIDADGSGTRDFEEFMGVMT [V53R], the “folding stability dG” value is -0.087 kcal/mol.

Turning to ELREAFRLYDKEGNGYISTDVMREILAELDETLSSEDLDAMIDEIDADGSGTQDFEEFMGVMT [V53Q], the “folding stability dG” value is -0.515 kcal/mol.

For ELREAFRLYDKEGNGYISTDVMREILAELDETLSSEDLDAMIDEIDADGSGTLDFEEFMGVMT [V53L], the “folding stability dG” value was determined as 1.58 kcal/mol.

Regarding ELREAFRLYDKEGNGYISTDVMREILAELDETLSSEDLDAMIDEIDADGSGTSDFEEFMGVMT [V53S], the “folding stability dG” value came out at 0.029 kcal/mol.

Take ELREAFRLYDKEGNGYISTDVMREILAELDETLSSEDLDAMIDEIDADGSGTMDFEEFMGVMT [V53M]: the “folding stability dG” value was found to be 0.875 kcal/mol.

For ELREAFRLYDKEGNGYISTDVMREILAELDETLSSEDLDAMIDEIDADGSGTKDFEEFMGVMT [V53K], the “folding stability dG” value was -0.419 kcal/mol.

For the variant ELREAFRLYDKEGNGYISTDVMREILAELDETLSSEDLDAMIDEIDADGSGTWDFEEFMGVMT [V53W], the “folding stability dG” value is 0.916 kcal/mol.

For the variant ELREAFRLYDKEGNGYISTDVMREILAELDETLSSEDLDAMIDEIDADGSGTHDFEEFMGVMT [V53H], the “folding stability dG” value was found to be 0.004 kcal/mol.

In the case of ELREAFRLYDKEGNGYISTDVMREILAELDETLSSEDLDAMIDEIDADGSGTIDFEEFMGVMT [V53I], the “folding stability dG” value amounted to 2.37 kcal/mol.

Regarding ELREAFRLYDKEGNGYISTDVMREILAELDETLSSEDLDAMIDEIDADGSGTCDFEEFMGVMT [V53C], the “folding stability dG” value was found to be 0.799 kcal/mol.

On to ELREAFRLYDKEGNGYISTDVMREILAELDETLSSEDLDAMIDEIDADGSGTPDFEEFMGVMT [V53P], for which the “folding stability dG” value was -0.828 kcal/mol.

Regarding ELREAFRLYDKEGNGYISTDVMREILAELDETLSSEDLDAMIDEIDADGSGTGDFEEFMGVMT [V53G], the “folding stability dG” value is -0.308 kcal/mol.

For the variant ELREAFRLYDKEGNGYISTDVMREILAELDETLSSEDLDAMIDEIDADGSGTTDFEEFMGVMT [V53T], the “folding stability dG” value is -0.067 kcal/mol.

Consider ELREAFRLYDKEGNGYISTDVMREILAELDETLSSEDLDAMIDEIDADGSGTFDFEEFMGVMT [V53F], for which the “folding stability dG” value is 1.07 kcal/mol.

Consider ELREAFRLYDKEGNGYISTDVMREILAELDETLSSEDLDAMIDEIDADGSGQVDFEEFMGVMT [T52Q], for which the “folding stability dG” value was found to be 1.68 kcal/mol.

ELREAFRLYDKEGNGYISTDVMREILAELDETLSSEDLDAMIDEIDADGSGEVDFEEFMGVMT [T52E]: the “folding stability dG” value is 1.28 kcal/mol.

Consider ELREAFRLYDKEGNGYISTDVMREILAELDETLSSEDLDAMIDEIDADGSGHVDFEEFMGVMT [T52H], for which the “folding stability dG” value came to 1.69 kcal/mol.

As for ELREAFRLYDKEGNGYISTDVMREILAELDETLSSEDLDAMIDEIDADGSGWVDFEEFMGVMT [T52W], the “folding stability dG” value is 1.31 kcal/mol.

For the variant ELREAFRLYDKEGNGYISTDVMREILAELDETLSSEDLDAMIDEIDADGSGSVDFEEFMGVMT [T52S], the “folding stability dG” value was determined as 1.45 kcal/mol.

Turning to ELREAFRLYDKEGNGYISTDVMREILAELDETLSSEDLDAMIDEIDADGSGYVDFEEFMGVMT [T52Y], the “folding stability dG” value is 1.52 kcal/mol.

In the case of ELREAFRLYDKEGNGYISTDVMREILAELDETLSSEDLDAMIDEIDADGSGKVDFEEFMGVMT [T52K], the “folding stability dG” value is 1.74 kcal/mol.

Consider ELREAFRLYDKEGNGYISTDVMREILAELDETLSSEDLDAMIDEIDADGSGCVDFEEFMGVMT [T52C], for which the “folding stability dG” value came out at 1.15 kcal/mol.

Consider ELREAFRLYDKEGNGYISTDVMREILAELDETLSSEDLDAMIDEIDADGSGRVDFEEFMGVMT [T52R], for which the “folding stability dG” value amounted to 1.87 kcal/mol.

Turning to ELREAFRLYDKEGNGYISTDVMREILAELDETLSSEDLDAMIDEIDADGSGGVDFEEFMGVMT [T52G], the “folding stability dG” value amounted to 1.02 kcal/mol.

With ELREAFRLYDKEGNGYISTDVMREILAELDETLSSEDLDAMIDEIDADGSGNVDFEEFMGVMT [T52N], the “folding stability dG” value came out at 1.49 kcal/mol.

Turning to ELREAFRLYDKEGNGYISTDVMREILAELDETLSSEDLDAMIDEIDADGSGLVDFEEFMGVMT [T52L], the “folding stability dG” value worked out at 1.65 kcal/mol.

For ELREAFRLYDKEGNGYISTDVMREILAELDETLSSEDLDAMIDEIDADGSGFVDFEEFMGVMT [T52F], the “folding stability dG” value is 1.53 kcal/mol.

Consider ELREAFRLYDKEGNGYISTDVMREILAELDETLSSEDLDAMIDEIDADGSGIVDFEEFMGVMT [T52I], for which the “folding stability dG” value was found to be 1.64 kcal/mol.

ELREAFRLYDKEGNGYISTDVMREILAELDETLSSEDLDAMIDEIDADGSGDVDFEEFMGVMT [T52D]: the “folding stability dG” value amounted to 0.729 kcal/mol.

For the variant ELREAFRLYDKEGNGYISTDVMREILAELDETLSSEDLDAMIDEIDADGSGVVDFEEFMGVMT [T52V], the “folding stability dG” value stood at 1.55 kcal/mol.

As to ELREAFRLYDKEGNGYISTDVMREILAELDETLSSEDLDAMIDEIDADGSGAVDFEEFMGVMT [T52A], the “folding stability dG” value turned out to be 1.11 kcal/mol.

Turning to ELREAFRLYDKEGNGYISTDVMREILAELDETLSSEDLDAMIDEIDADGSGPVDFEEFMGVMT [T52P], the “folding stability dG” value was -0.373 kcal/mol.

In the case of ELREAFRLYDKEGNGYISTDVMREILAELDETLSSEDLDAMIDEIDADGSGMVDFEEFMGVMT [T52M], the “folding stability dG” value was determined as 1.74 kcal/mol.

The values are drawn from the MegaScale stability set (Tsuboyama et al. 2023).
